In one series the test system is DNA-Methyl Green. The settings on record: listed value for the starting material; cited from earlier work.
Series [1] concerns the target porcine pancreatic elastase (PPE) (Sus scrofa, UniProt P00772). The series can be described thus: Inhibition of porcine pancreatic elastase by rAAT (specific activity). The format is biochemical. Here is the method: To determine the specific activity, the rAAT small spherical particles were dissolved in 0.2M Tris-HCl pH 8.0 at room temperature. The resulting solution was analyzed by an assay which measures the capacity of rAAT to inhibit the ability of porcine pancreatic elastase (PPE) to hydrolyze synthetic peptides that contain a p-nitroanilide group at their C-terminus. The same solution of rAAT small spherical particles was then assayed for protein concentration using the Bicinchoninic Acid (BCA) assay. A control rAAT starting material solution was also analyzed in both assays. Because the activity assay was developed to determine the activity based on a concentration of 1 mg/ml protein per sample, the activity value was corrected based on the actual protein concentration as determined by BCA, giving the specific activity value:
[formula] Inhibition of Porcine Pancreatic Elastase by rAAT

Sequence of porcine pancreatic elastase (PPE) (P00772 27-266): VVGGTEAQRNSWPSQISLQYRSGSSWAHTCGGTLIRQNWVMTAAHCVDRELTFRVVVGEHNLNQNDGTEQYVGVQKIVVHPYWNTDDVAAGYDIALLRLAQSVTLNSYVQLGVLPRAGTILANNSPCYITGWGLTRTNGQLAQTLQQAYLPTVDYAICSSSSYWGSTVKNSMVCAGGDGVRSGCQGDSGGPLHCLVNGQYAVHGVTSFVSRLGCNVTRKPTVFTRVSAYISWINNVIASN

Take DNase [DNase starting material]: the “theoretical activity as listed” value with DNA-Methyl Green was 775 Ku/mg protein. Consider “alpha-1-antitrypsin [control rAAT starting material]”, for which the specific activity in series [1] (scale 100-300 mg (n = 12, column)) turned out to be 64.34 ± 4.95 IU/mg; in series [1] (scale 200-300 mg (n = 8, vessel)) it was 65.87 ± 0.98 IU/mg.

Values taken from patent publication US8075919B2, “Methods for fabrication, uses and compositions of small spherical particles prepared by controlled phase separation” (Baxter International Inc., priority 2003, dated 2011).
